Measured values from patent publication US6132731, “Murine leukemia virus vectors” (Oxford Biomedica (UK) Limited, dated 2000).

Experiments:
[1] = biological target: VLA4 receptor (human) (UniProt P13612)
[2] = biological target: VLA3 receptor (human, UniProt P26006); experiment: cell-based or functional assay
[3] = biological target: VLA5 receptor (human, UniProt P08648); experiment: cell-based or functional assay
[4] = biological target: VLA4 receptor (human, UniProt P13612); experiment: cell-based or functional assay

## amphotropic MLV envelope (isolate 4070a) (plasmid pHIT456)
[1]
  viral titer of pHIT456 (amphotropic) virus on U937 cells in the presence of anti-VLA4 antibody: 40000 viral titer

B1: hybrid ecotropic MLV envelope with FLA16 at site II (plasmid pHIT508) (other)
chain: ASPGSSPHQVYNITWEVTNGDRETVWATSGNHPLWTWWPDLTPDLCMLAHHGPSYWGLEYQSPFSSPPGPPCCSGGSSPGCSRDCEEPLTSLTPRCNTAWNRLKLDQTTHKSNEGFYVCQGATFALRGDNPQGCGGPDSFYCAYWGCETTGRAYWKPSSSWDFITVNNNLTSDQAVQVCKDNKWCNPLVIRFTDAGRRVTSWTTGHYWGLRLYVSGQDPGLTFGIRLRYQNLGPRVPIGPNPVLADQQPLSKPKPVKSPSVTKPPSGTPLSPTQLPPAGTENRLLNLVDGAYQALNLTSPDKTQECWLCLVAGPPYYEGVAVLGTYSNHTSAPANCSVASQHKLTLSEVTGQGLCIGAVPKTHQALCNTTQTSSRGSYYLVAPTGTMWACSTGLTPCISTTILNLTTDYCVLVELWPRVTYHSPSYVYGLFERSNRHKREPVSLTLALLLGGLTMGGIAAGIGTGTTALMATQQFQQLQAAVQDDLREVEKSISNLEKSLTSLSEVVLQNRRGLDLLFLKEGGLCAALKEECCFYADHTGLVRDSMAKLRERLNQRQKLFESTQGWFEGLFNRSPWFTTLISTIMGPLIVLLMILLFGPCILNRLVQFVKDRISVVQALVLTQQYHQLKPIEYEP
[2]
  viral titer on U937 cells (lacZ delivery, X-gal staining): 150 viral titer
[3]
  viral titer on U937 cells (lacZ delivery, X-gal staining): 150 viral titer

B2: hybrid ecotropic MLV envelope with the VCAM-1 sequence at site II (plasmid pHIT510) (other)
chain: ASPGSSPHQVYNITWEVTNGDRETVWATSGNHPLWTWWPDLTPDLCMLAHHGPSYWGLEYQSPFSSPPGPPCCSGGSSPGCSRDCEEPLTSLTPRCNTAWNRLKLDQTTHKSNEGFYVCTIDSPLNCGGPDSFYCAYWGCETTGRAYWKPSSSWDFITVNNNLTSDQAVQVCKDNKWCNPLVIRFTDAGRRVTSWTTGHYWGLRLYVSGQDPGLTFGIRLRYQNLGPRVPIGPNPVLADQQPLSKPKPVKSPSVTKPPSGTPLSPTQLPPAGTENRLLNLVDGAYQALNLTSPDKTQECWLCLVAGPPYYEGVAVLGTYSNHTSAPANCSVASQHKLTLSEVTGQGLCIGAVPKTHQALCNTTQTSSRGSYYLVAPTGTMWACSTGLTPCISTTILNLTTDYCVLVELWPRVTYHSPSYVYGLFERSNRHKREPVSLTLALLLGGLTMGGIAAGIGTGTTALMATQQFQQLQAAVQDDLREVEKSISNLEKSLTSLSEVVLQNRRGLDLLFLKEGGLCAALKEECCFYADHTGLVRDSMAKLRERLNQRQKLFESTQGWFEGLFNRSPWFTTLISTIMGPLIVLLMILLFGPCILNRLVQFVKDRISVVQALVLTQQYHQLKPIEYEP
[4]
  viral titer on U937 cells (lacZ delivery, X-gal staining): 150 viral titer
